Experimental data reported in PMC10501187.

Target: GABARAP (UniProt O95166)
Experiment: GST-GABARAP pull-down from cell lysate
Settings: reference: wild type

| Substance | binding against the reference (sites T54) | binding against the reference (sites S65) |
| --- | --- | --- |
| ORP8 (from UniProt Q9BZF1) T54A | weaker |  |
| ORP8 (from UniProt Q9BZF1) S65A |  | weaker |
